For series [1], the system named is bacterial communities at the surface of the steel. The experiment in a line: 16S rDNA analysis of microbial community on steel coupons. As to conditions: treated coupons. How it is done:
After photo imaging, on each of the coupon surface, all material including biofilm and tubercles were scraped into a sterile 50 ml polypropylene centrifuge tube (Corning, N.Y., USA) using a steel scraper. A 0.5 g subsample of the surface material from each coupon sample was used for DNA extraction using PowerSoil DNA kit (MoBio Laboratories). The extracted DNA was used to sequence the V4 region of 16S rDNA gene and describe changes in the composition of bacterial communities. DNA samples were quantified with a NanoDrop 2000 Spectrophotometer (Thermo Scientific, Waltham, Mass. USA) and then sent overnight to the University of Minnesota Genomics Center for 16S rDNA sequencing. 30 samples were multiplexed into a single run of Illumina MiSeq paired-end 300 cycles, which was expected to generate a total of 15 million sequences of the 254 bp portions of the 16S rDNA V4 region.
Sequence data were processed and analyzed using the MOTHUR program. To ensure high quality data for analysis, sequence reads containing ambiguous bases, homopolymers >7 bp, more than one mismatch in the primer sequence, or an average per base quality score below 25 were removed. Sequences that only appear once in the total set were assumed to be a result of sequencing error and removed from the analysis. Chimeric sequences were also removed using the UCHIME algorithm within the MOTHUR program. […]

Series [2] relates to Pectobacterium carotovorum CIR354. Kind of series: Soft rot potato assay. The class given is in vivo. As to conditions: single spraying of 1 mL, 10 mg/mL. How it is done:
FIG. 30A-30F show control of plant infections by a single spraying of 1 mL of lactonase solution (10 mg/mL) on plant leaves and crop. (A) and (B) Soft rot potato assay.
Specifically, we could establish infection systems for corn, wheat, and barley plants, and a crop infection system for potato (tubers and leaves).

The subject of series [3] is complex soil microbial community. The experiment in a line: Biofilm quantification in flow-through recirculating bioreactor. The class given is cell-based. As to conditions: over 21 days. How it is done: After overnight induction (18° C., 0.2% L-Arabinose, 200 RPM shaking), cells overexpressing proteins were centrifuged (4,400×g, 20 min, 4° C.) and re-suspended in 100 mM potassium phosphate buffer, pH 7, at a concentration of 0.4 g/mL wet weight (0.2 g/mL for the 1× lactonase beads). Gel beads (1 mm diameter) containing the lactonase/control bacteria cultures were made using a dripping method while gelation occurred, using a method similar to a previously used protocol^41 400 mg PEG (average molecular weight, 10,000 Da) was mixed with 4 mL acetic acid (0.01M) until the PEG dissolved. […]
The flow-through system used in this study consisted of three 3-liter tanks set up in parallel. […] Each tank contained three liters of 15× diluted LB media in water and a pre-broken 96-stripwell plate was submerged to the bottom (so that individual wells could be harvested for either biofilm quantification or DNA extraction). […]
Inside each of the tanks sat two submerged 96-stripwell plates. […] Individual wells were extracted in triplicate for crystal violet biofilm quantification (OD550 nm) using a similar protocol as previously described^13. […] To quantify biofilm, the remaining crystal violet stained to the wells was solubilized with 125 μL of 30% acetic acid and this solution was read on a spectrophotometer at 550 nm. […]

For series [4] the following is noted: 25° C., purified protein sample; cited from earlier work.

B1: SsoPox W263I: improved variant of the hyperthermostable lactonase SsoPox from Sulfolobus solfataricus, exhibiting higher catalytic rates (protein, UniProt Q97VT7 1-314, looked up, variant W263I)
Aryldialkylphosphatase: MRIPLVGKDSIESKDIGFTLIHEHLRVFSEAVRQQWPHLYNEDEEFRNAVNEVKRAMQFGVKTIVDPTVMGLGRDIRFMEKVVKATGINLVAGTGIYIYIDLPFYFLNRSIDEIADLFIHDIKEGIQGTLNKAGFVKIAADEPGITKDVEKVIRAAAIANKETKVPIITHSNAHNNTGLEQQRILTEEGVDPGKILIGHLGDTDNIDYIKKIADKGSFIGLDRYGLDLFLPVDKRNETTLRLIKDGYSDKIMISHDYCCTIDIGTAKPEYKPKLAPRWSITLIFEDTIPFLKRNGVNEEVIATIFKENPKKFFS
Regarding B1, in series [1], the “abundance of Burkholderiales, Pseudomonadales and Rhodospirillales” value was “significantly reduced”. Besides, in series [2], the “maceration of potato slices” value was “less maceration”. Further, the “reduction of biofilm formation” value in series [3] is 2 fold. Also, in series [4], the time remaining stable is above 300 days.

The values above are taken from patent US20220154156A1, “PROTEINS AND METHODS FOR DISRUPTING BACTERIAL COMMUNICATION” (REGENTS OF THE UNIVERSITY OF MINNESOTA, priority 2019, published 2022).
